Assay results as given in patent US20220396633A1 (MABPRO A S, published 2022).

molecular target: CA IX-positive antigen (protein extract of C-33a_CA IX cells) (human, UniProt Q16790 38-459); experiment: ELISA, antibody 5 ug/ml on coated protein extract of C-33a_CA IX cells versus C-33a_neo
Experimental: To evaluate the antigen-binding specificity, all twenty-five humanized variants of CA9hu-2 were subjected to enzyme-linked immunosorbent assay (ELISA) using either CA IX-positive or CA IX-negative antigen. Antigens were prepared from stably transfected C-33a cell line expressing CA IX (C-33a_CA IX) and parental mock-transfected C-33a cells without CA IX expression (C-33a_neo).
Proteins were extracted from the cell monolayer with RIPA lysis buffer (0.1% deoxycholate, 1% Triton X-100 and protease inhibitor cocktail in PBS). Protein concentrations were determined by bicinchoninic acid assay (ThermoFisher Scientific, Waltham, Mass. USA) according to the manufacturer's instructions. Protein extracts were diluted to final concentration 0.2 mg/ml in PBS. Protein concentration of antigen samples used in screening of antigen-antibody specific interaction tested by ELISA meets the requirements for low detergent content that could otherwise interfere throughout the analysis. 50 μl of either CA IX-positive or CA IX-negative antigen was coated on the surface of microplate wells overnight at 37° C. After washing with PBS-T 0.05% Tween-20 in PBS pH7.2, 50 μl of all humanized variants of CA9hu-2 (diluted to concentration 5 μg/ml in 10% FCS in PBS-T) were added and incubated for 2 h at room temperature. Peroxidase-labeled swine anti-human IgG (diluted 1:5000 in 10% FCS in PBS-T; Sigma-Aldrich, St. Louis, Mo. USA) was used as detector. Parental IV/18 antibody (marked as “mouse Ab”) as well as chimeric HC0LC0 antibody (having the murine variable domains and the human Ig constant domains) were used as reference samples. Results are expressed as a fold of induction and are calculated as O.D. values of absorbance measured at 492 nm from CA IX-positive antigen/O.D. values of absorbance measured at 492 nm from CA IX-negative antigen.

| binding result | Binder |
| --- | --- |
| binds | CA9hu-2_HC1LC5 (antibody, V domains shown, Humanized variant of IV/18; VH in-frame with human IgG constant domain (allotype G1m17,1), VL in-frame with human kappa constant domain (allotype Km3)) VH: EVQLVESGGGLVQPGGSLKLSCAASGFTFNTNAMHWVRQASGKGLEWVGRIRSKSNNYTTYYADSVKDRFTISRDDSKNTAYLQMNSLKTEDTAVYYCVCGSWFAYWGQGTLVTVSS VL: DIVMTQSPDSLAVSLGERATINCKSSQSLLNSSNQKNYLAWYQQKPGQPPKLLIYFTSTRQSGVPDRFSGSGSGTDFTLTISSLQAEDVAVYYCQQHYSIPLTFGQGTKLEIK |
| binds | CA9hu-2_HC5LC2 (antibody, V domains shown, Humanized variant of IV/18; VH in-frame with human IgG constant domain (allotype G1m17,1), VL in-frame with human kappa constant domain (allotype Km3)) VH: EVQLVESGGGLVQPGGSLKLSCAASGFTFNTNAMHWVRQASGKGLEWVGRIRSKSNNYTTYYADSVKDRFTISRDDSKNTAYLQMNSLKTEDTAVYYCVCGSWFAYWGQGTTVTVSS VL: DIVMTQSPDSLAVSLGERATINCKSSQSLLNSSNQKNYLAWFQQKPGQPPNLVIYFTSTRQSGVPDRFSGSGSGTDFTLTINSLQAEDVAVYFCQQHYSIPLTFGQGTQVEIK |
| binds | CA9hu-2_HC2LC4 (antibody, V domains shown, Humanized variant of IV/18; VH in-frame with human IgG constant domain (allotype G1m17,1), VL in-frame with human kappa constant domain (allotype Km3)) VH: EVQLVESGGGLVQPGGSLKLSCAASGFTFNTNAMHWVRQASGKGLEWVGRIRSKSNNYTTYYADSVKDRFTISRDDSKSTAYLQMNSLKTEDTAVYYCVCGSWFAYWGQGTLVTVSS VL: DIVMTQSPDSLAVSLGERATINCKSSQSLLNSSNQKNYLAWFQQKPGQPPKVLIYFTSTRQSGVPDRFTGSGSGTDFTLTISSLQAEDVAVYYCQQHYSIPLTFGQGTKLEIK |
| binds | CA9hu-2_HC5LC4 (antibody, V domains shown, Humanized variant of IV/18; VH in-frame with human IgG constant domain (allotype G1m17,1), VL in-frame with human kappa constant domain (allotype Km3)) VH: EVQLVESGGGLVQPGGSLKLSCAASGFTFNTNAMHWVRQASGKGLEWVGRIRSKSNNYTTYYADSVKDRFTISRDDSKNTAYLQMNSLKTEDTAVYYCVCGSWFAYWGQGTTVTVSS VL: DIVMTQSPDSLAVSLGERATINCKSSQSLLNSSNQKNYLAWFQQKPGQPPKVLIYFTSTRQSGVPDRFTGSGSGTDFTLTISSLQAEDVAVYYCQQHYSIPLTFGQGTKLEIK |
| binds | CA9hu-2_HC2LC1 (antibody, V domains shown, Humanized variant of IV/18; VH in-frame with human IgG constant domain (allotype G1m17,1), VL in-frame with human kappa constant domain (allotype Km3)) VH: EVQLVESGGGLVQPGGSLKLSCAASGFTFNTNAMHWVRQASGKGLEWVGRIRSKSNNYTTYYADSVKDRFTISRDDSKSTAYLQMNSLKTEDTAVYYCVCGSWFAYWGQGTLVTVSS VL: DVVMTQSPDSLAVSLGERVTINCKSSQSLLNSSNQKNYLAWYQQKPGQSPKLLIYFTSTRQSGVPDRFSGSGSGTDFTLTISSLQAEDVAVYYCQQHYSIPLTFGQGTKLEIK |
| binds | CA9hu-2_HC2LC5 (antibody, V domains shown, Humanized variant of IV/18; VH in-frame with human IgG constant domain (allotype G1m17,1), VL in-frame with human kappa constant domain (allotype Km3)) VH: EVQLVESGGGLVQPGGSLKLSCAASGFTFNTNAMHWVRQASGKGLEWVGRIRSKSNNYTTYYADSVKDRFTISRDDSKSTAYLQMNSLKTEDTAVYYCVCGSWFAYWGQGTLVTVSS VL: DIVMTQSPDSLAVSLGERATINCKSSQSLLNSSNQKNYLAWYQQKPGQPPKLLIYFTSTRQSGVPDRFSGSGSGTDFTLTISSLQAEDVAVYYCQQHYSIPLTFGQGTKLEIK |
| binds | CA9hu-2_HC2LC3 (antibody, V domains shown, Humanized variant of IV/18; VH in-frame with human IgG constant domain (allotype G1m17,1), VL in-frame with human kappa constant domain (allotype Km3)) VH: EVQLVESGGGLVQPGGSLKLSCAASGFTFNTNAMHWVRQASGKGLEWVGRIRSKSNNYTTYYADSVKDRFTISRDDSKSTAYLQMNSLKTEDTAVYYCVCGSWFAYWGQGTLVTVSS VL: DIQMTQSPDSLAVSLGERATINCKSSQSLLNSSNQKNYLAWYQQKPGQPPKLLIYFTSTRQSGVPDRFSGSGSGTDFTLTISSLQAEDVAVYFCQQHYSIPLTFGQGTKVEIK |
| binds | CA9hu-2_HC4LC1 (antibody, V domains shown, Humanized variant of IV/18; VH in-frame with human IgG constant domain (allotype G1m17,1), VL in-frame with human kappa constant domain (allotype Km3)) VH: EVQLVESGGGVVQPGRSLRLSCAASGFTFNTNAMHWVRQAPGKGLEWVARIRSKSNNYTTYYADSVKDRFTISRDNSKNTLYLQMNSLRAEDTAVYYCVCGSWFAYWGQGTLVTVSS VL: DVVMTQSPDSLAVSLGERVTINCKSSQSLLNSSNQKNYLAWYQQKPGQSPKLLIYFTSTRQSGVPDRFSGSGSGTDFTLTISSLQAEDVAVYYCQQHYSIPLTFGQGTKLEIK |
| binds | CA9hu-2_HC2LC2 (antibody, V domains shown, Humanized variant of IV/18; VH in-frame with human IgG constant domain (allotype G1m17,1), VL in-frame with human kappa constant domain (allotype Km3)) VH: EVQLVESGGGLVQPGGSLKLSCAASGFTFNTNAMHWVRQASGKGLEWVGRIRSKSNNYTTYYADSVKDRFTISRDDSKSTAYLQMNSLKTEDTAVYYCVCGSWFAYWGQGTLVTVSS VL: DIVMTQSPDSLAVSLGERATINCKSSQSLLNSSNQKNYLAWFQQKPGQPPNLVIYFTSTRQSGVPDRFSGSGSGTDFTLTINSLQAEDVAVYFCQQHYSIPLTFGQGTQVEIK |
| binds | CA9hu-2_HC1LC3 (antibody, V domains shown, Humanized variant of IV/18; VH in-frame with human IgG constant domain (allotype G1m17,1), VL in-frame with human kappa constant domain (allotype Km3)) VH: EVQLVESGGGLVQPGGSLKLSCAASGFTFNTNAMHWVRQASGKGLEWVGRIRSKSNNYTTYYADSVKDRFTISRDDSKNTAYLQMNSLKTEDTAVYYCVCGSWFAYWGQGTLVTVSS VL: DIQMTQSPDSLAVSLGERATINCKSSQSLLNSSNQKNYLAWYQQKPGQPPKLLIYFTSTRQSGVPDRFSGSGSGTDFTLTISSLQAEDVAVYFCQQHYSIPLTFGQGTKVEIK |
| binds | CA9hu-2_HC4LC3 (antibody, V domains shown, Humanized variant of IV/18; VH in-frame with human IgG constant domain (allotype G1m17,1), VL in-frame with human kappa constant domain (allotype Km3)) VH: EVQLVESGGGVVQPGRSLRLSCAASGFTFNTNAMHWVRQAPGKGLEWVARIRSKSNNYTTYYADSVKDRFTISRDNSKNTLYLQMNSLRAEDTAVYYCVCGSWFAYWGQGTLVTVSS VL: DIQMTQSPDSLAVSLGERATINCKSSQSLLNSSNQKNYLAWYQQKPGQPPKLLIYFTSTRQSGVPDRFSGSGSGTDFTLTISSLQAEDVAVYFCQQHYSIPLTFGQGTKVEIK |
| binds | CA9hu-2_HC1LC4 (antibody, V domains shown, Humanized variant of IV/18; VH in-frame with human IgG constant domain (allotype G1m17,1), VL in-frame with human kappa constant domain (allotype Km3)) VH: EVQLVESGGGLVQPGGSLKLSCAASGFTFNTNAMHWVRQASGKGLEWVGRIRSKSNNYTTYYADSVKDRFTISRDDSKNTAYLQMNSLKTEDTAVYYCVCGSWFAYWGQGTLVTVSS VL: DIVMTQSPDSLAVSLGERATINCKSSQSLLNSSNQKNYLAWFQQKPGQPPKVLIYFTSTRQSGVPDRFTGSGSGTDFTLTISSLQAEDVAVYYCQQHYSIPLTFGQGTKLEIK |
| binds | CA9hu-2_HC5LC1 (antibody, V domains shown, Humanized variant of IV/18; VH in-frame with human IgG constant domain (allotype G1m17,1), VL in-frame with human kappa constant domain (allotype Km3)) VH: EVQLVESGGGLVQPGGSLKLSCAASGFTFNTNAMHWVRQASGKGLEWVGRIRSKSNNYTTYYADSVKDRFTISRDDSKNTAYLQMNSLKTEDTAVYYCVCGSWFAYWGQGTTVTVSS VL: DVVMTQSPDSLAVSLGERVTINCKSSQSLLNSSNQKNYLAWYQQKPGQSPKLLIYFTSTRQSGVPDRFSGSGSGTDFTLTISSLQAEDVAVYYCQQHYSIPLTFGQGTKLEIK |
| binds | CA9hu-2_HC5LC3 (antibody, V domains shown, Humanized variant of IV/18; VH in-frame with human IgG constant domain (allotype G1m17,1), VL in-frame with human kappa constant domain (allotype Km3)) VH: EVQLVESGGGLVQPGGSLKLSCAASGFTFNTNAMHWVRQASGKGLEWVGRIRSKSNNYTTYYADSVKDRFTISRDDSKNTAYLQMNSLKTEDTAVYYCVCGSWFAYWGQGTTVTVSS VL: DIQMTQSPDSLAVSLGERATINCKSSQSLLNSSNQKNYLAWYQQKPGQPPKLLIYFTSTRQSGVPDRFSGSGSGTDFTLTISSLQAEDVAVYFCQQHYSIPLTFGQGTKVEIK |
| binds | CA9hu-2_HC3LC5 (antibody, V domains shown, Humanized variant of IV/18; VH in-frame with human IgG constant domain (allotype G1m17,1), VL in-frame with human kappa constant domain (allotype Km3)) VH: QVQLVESGGGVVQPGGSLRLSCAASGFTFNTNAMHWVRQAPGRGLEWVARIRSKSNNYTTYYADSVKDRFTISRDNSKNTLYLQVNSLRAEDTAVYYCVCGSWFAYWGQGTLVTVSS VL: DIVMTQSPDSLAVSLGERATINCKSSQSLLNSSNQKNYLAWYQQKPGQPPKLLIYFTSTRQSGVPDRFSGSGSGTDFTLTISSLQAEDVAVYYCQQHYSIPLTFGQGTKLEIK |
| binds | CA9hu-2_HC1LC1 (antibody, V domains shown, Humanized variant of IV/18; VH in-frame with human IgG constant domain (allotype G1m17,1), VL in-frame with human kappa constant domain (allotype Km3)) VH: EVQLVESGGGLVQPGGSLKLSCAASGFTFNTNAMHWVRQASGKGLEWVGRIRSKSNNYTTYYADSVKDRFTISRDDSKNTAYLQMNSLKTEDTAVYYCVCGSWFAYWGQGTLVTVSS VL: DVVMTQSPDSLAVSLGERVTINCKSSQSLLNSSNQKNYLAWYQQKPGQSPKLLIYFTSTRQSGVPDRFSGSGSGTDFTLTISSLQAEDVAVYYCQQHYSIPLTFGQGTKLEIK |
| binds | CA9hu-2_HC1LC2 (antibody, V domains shown, Humanized variant of IV/18; VH in-frame with human IgG constant domain (allotype G1m17,1), VL in-frame with human kappa constant domain (allotype Km3)) VH: EVQLVESGGGLVQPGGSLKLSCAASGFTFNTNAMHWVRQASGKGLEWVGRIRSKSNNYTTYYADSVKDRFTISRDDSKNTAYLQMNSLKTEDTAVYYCVCGSWFAYWGQGTLVTVSS VL: DIVMTQSPDSLAVSLGERATINCKSSQSLLNSSNQKNYLAWFQQKPGQPPNLVIYFTSTRQSGVPDRFSGSGSGTDFTLTINSLQAEDVAVYFCQQHYSIPLTFGQGTQVEIK |
| binds | CA9hu-2_HC5LC5 (antibody, V domains shown, Humanized variant of IV/18; VH in-frame with human IgG constant domain (allotype G1m17,1), VL in-frame with human kappa constant domain (allotype Km3)) VH: EVQLVESGGGLVQPGGSLKLSCAASGFTFNTNAMHWVRQASGKGLEWVGRIRSKSNNYTTYYADSVKDRFTISRDDSKNTAYLQMNSLKTEDTAVYYCVCGSWFAYWGQGTTVTVSS VL: DIVMTQSPDSLAVSLGERATINCKSSQSLLNSSNQKNYLAWYQQKPGQPPKLLIYFTSTRQSGVPDRFSGSGSGTDFTLTISSLQAEDVAVYYCQQHYSIPLTFGQGTKLEIK |
| binds | CA9hu-2_HC4LC4 (antibody, V domains shown, Humanized variant of IV/18; VH in-frame with human IgG constant domain (allotype G1m17,1), VL in-frame with human kappa constant domain (allotype Km3)) VH: EVQLVESGGGVVQPGRSLRLSCAASGFTFNTNAMHWVRQAPGKGLEWVARIRSKSNNYTTYYADSVKDRFTISRDNSKNTLYLQMNSLRAEDTAVYYCVCGSWFAYWGQGTLVTVSS VL: DIVMTQSPDSLAVSLGERATINCKSSQSLLNSSNQKNYLAWFQQKPGQPPKVLIYFTSTRQSGVPDRFTGSGSGTDFTLTISSLQAEDVAVYYCQQHYSIPLTFGQGTKLEIK |
